These results are taken from patent publication US20250250343A1 (UNITY BIOTECHNOLOGY, published 2025).

Where two headings read alike, the source gives them in different places.

Common to all, as to assay: cell-based or functional assay
The target in assay [1] is T1, human Tie2 (human, UniProt Q02763 23-1124).
For assay [2], the target named is T1, human Tie2. The source holds these as a separate data set.
Assay [3] has as its target T2, VEGF (human, UniProt P15692-4).
Assay [4] deals with T1, human Tie2. The source holds these as a separate data set.
For assay [5], the target named is T1, human Tie2. The source holds these as a separate data set.
In assay [6] the target is T1, human Tie2. This is another data set of the same source.
In assay [7] the target is T1, human Tie2. This is another data set of the same source.
Assay [8] has as its target T2, VEGF. The source holds these as a separate data set.
In assay [9] the target is T1, human Tie2. The source holds these as a separate data set.
Assay [10] has as its target T1, human Tie2. This is another data set of the same source.
Assay [11] has as its target T2, VEGF. The source holds these as a separate data set.
The target of assay [12] is T2, VEGF. The source holds these as a separate data set.

T1 sequence (Q02763 23-1124): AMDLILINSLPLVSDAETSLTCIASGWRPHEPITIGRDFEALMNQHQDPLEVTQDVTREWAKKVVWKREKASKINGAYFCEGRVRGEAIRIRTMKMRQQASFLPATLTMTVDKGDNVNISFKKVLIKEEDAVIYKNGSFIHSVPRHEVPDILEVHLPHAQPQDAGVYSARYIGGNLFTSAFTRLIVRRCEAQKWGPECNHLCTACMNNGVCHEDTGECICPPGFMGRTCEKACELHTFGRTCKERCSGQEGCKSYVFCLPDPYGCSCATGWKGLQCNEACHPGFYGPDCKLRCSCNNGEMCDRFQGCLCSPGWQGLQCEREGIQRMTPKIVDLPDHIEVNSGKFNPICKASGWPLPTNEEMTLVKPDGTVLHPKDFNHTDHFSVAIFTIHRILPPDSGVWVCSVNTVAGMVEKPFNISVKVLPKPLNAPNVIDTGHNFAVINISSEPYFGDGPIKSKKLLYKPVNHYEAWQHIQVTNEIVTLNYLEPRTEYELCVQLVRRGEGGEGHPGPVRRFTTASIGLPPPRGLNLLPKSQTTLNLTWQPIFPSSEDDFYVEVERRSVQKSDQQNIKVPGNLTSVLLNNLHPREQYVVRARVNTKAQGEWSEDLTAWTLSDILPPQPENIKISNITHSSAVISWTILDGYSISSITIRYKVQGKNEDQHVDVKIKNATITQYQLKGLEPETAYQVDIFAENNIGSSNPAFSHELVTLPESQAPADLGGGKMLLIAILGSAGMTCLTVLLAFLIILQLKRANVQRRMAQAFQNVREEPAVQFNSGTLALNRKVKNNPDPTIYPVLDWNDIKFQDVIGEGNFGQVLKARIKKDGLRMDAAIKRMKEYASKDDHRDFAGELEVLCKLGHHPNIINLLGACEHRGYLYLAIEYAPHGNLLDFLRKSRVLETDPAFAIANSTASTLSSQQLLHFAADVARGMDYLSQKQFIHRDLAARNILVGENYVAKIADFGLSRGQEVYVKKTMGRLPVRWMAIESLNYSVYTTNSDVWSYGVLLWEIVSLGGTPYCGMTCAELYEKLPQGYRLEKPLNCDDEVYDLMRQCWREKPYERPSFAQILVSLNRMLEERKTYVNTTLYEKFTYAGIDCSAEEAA
T2 sequence (P15692 other isoform, or with tags, fused parts or gaps limits assumed): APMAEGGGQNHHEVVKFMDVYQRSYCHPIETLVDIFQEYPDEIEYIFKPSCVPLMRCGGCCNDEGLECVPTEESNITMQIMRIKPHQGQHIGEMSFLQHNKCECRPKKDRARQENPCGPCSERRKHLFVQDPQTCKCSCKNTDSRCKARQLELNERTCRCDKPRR

B1: Construct #1 (bispecific antibody, human IgG1, kappa, L234A L235A)
heavy: DVQLVESGGGVVRPGESLRLSCTASGFTFDSYGMSWVRQAPGKGLEWVSSINVGDNTYYADSVRGRFIISRDSSRNTLYLQMNSLTAEDTAVYYCANWNSFFDYWGLGTLVTVSSASTKGPSVFPLAPSSKSTSGGTAALGCLVKDYFPEPVTVSWNSGALTSGVHTFPAVLQSSGLYSLSSVVTVPSSSLGTQTYICNVNHKPSNTKVDKKVEPKSCDKTHTCPPCPAPEAAGGPSVFLFPPKPKDTLMISRTPEVTCVVVDVSHEDPEVKFNWYVDGVEVHNAKTKPREEQYNSTYRVVSVLTVLHQDWLNGKEYKCKVSNKALGAPIEKTISKAKGQPREPQVYTLPPSREEMTKNQVSLTCLVKGFYPSDIAVEWESNGQPENNYKTTPPVLDSDGSFFLYSKLTVDKSRWQQGNVFSCSVMHEALHNHYTQKSLSLSPGKSDTGRPFVEMYSEIPEIIHMTEGRELVIPCRVTSPNITVTLKKFPLDTLIPDGKRIIWDSRKGFIISNATYKEIGLLTCEATVNGHLYKTNYLTHRQTNTIIDVVLSPSHGIELSVGEKLVLNCTARTELNVGIDFNWEYPSSKHQHKKLVNRDLKTQSGSEMKKFLSTLTIDGVTRSDQGLYTCAASSGLMTKKNSTFVRVHEK
light: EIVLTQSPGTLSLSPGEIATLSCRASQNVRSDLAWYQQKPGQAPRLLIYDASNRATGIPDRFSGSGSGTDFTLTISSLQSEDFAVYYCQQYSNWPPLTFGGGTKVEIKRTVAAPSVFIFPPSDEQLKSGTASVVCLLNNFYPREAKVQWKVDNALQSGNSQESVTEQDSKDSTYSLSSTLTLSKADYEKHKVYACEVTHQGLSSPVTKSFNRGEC
As to B1, in the assay with human Tie2 [1], the “EC50, pTie2 in HUVEC, W/ VEGF (20 nM VEGF-165 per paragraph 153) [Panel E]” value is 0.39 nM and the “EC50, pTie2 in HUVEC, W/O VEGF [Panel E]” value was determined as 1.33 nM. In addition, in the assay with human Tie2 [2], the “EC50, pTIE2 in HUVEC [Panel C]” value was found to be 3.56 nM. The “EC50, VEGF inhibition, KDR/NFAT-RE HEK293 luciferase reporter [Panel C]” value with VEGF [3] stood at 1600 pM. Besides, in the assay with human Tie2 [4], the “EC50, pTie2 in HUVEC, W/ VEGF (panels A-C print 'W/ VEGF 50nM'; paragraph 153 says 20 nM) [Panel D]” value stood at 0.39 nM and the “EC50, pTie2 in HUVEC, W/O VEGF [Panel D]” value came out at 1.33 nM. In the assay with human Tie2 [5], the “EC50, pAkt in HUVEC (MSD ELISA) [Panel B]” value (shortened to “EC50, pAkt in HUVEC”) worked out at 0.909 nM. The “EC50, pAkt in HUVEC” value with human Tie2 [6] was determined as 1.33 nM. For the same molecule, the “EC50, pTie2 in HUVEC (in vitro potency)” value with human Tie2 [7] came to 4.2 nM. The “EC50, VEGF neutralisation, KDR/NFAT-RE HEK293 luciferase reporter” value with VEGF [8] was 1300 pM. In addition, the “phosphorylated Akt potency in HUVEC cells, against Construct #5” value with human Tie2 [9] was about 5 fold.

B2: #2 (bispecific antibody, human IgG1, kappa, L234A L235A)
heavy chain: DVQLVESGGGVVRPGESLRLSCTASGFTFDSYGMSWVRQAPGKGLEWVSSINVGDNTYYADSVRGRFIISRDSSRNTLYLQMNSLTAEDTAVYYCANWNSFFDYWGLGTLVTVSSASTKGPSVFPLAPSSKSTSGGTAALGCLVKDYFPEPVTVSWNSGALTSGVHTFPAVLQSSGLYSLSSVVTVPSSSLGTQTYICNVNHKPSNTKVDKKVEPKSCDKTHTCPPCPAPEAAGGPSVFLFPPKPKDTLMISRTPEVTCVVVDVSHEDPEVKFNWYVDGVEVHNAKTKPREEQYNSTYRVVSVLTVLHQDWLNGKEYKCKVSNKALGAPIEKTISKAKGQPREPQVYTLPPSREEMTKNQVSLTCLVKGFYPSDIAVEWESNGQPENNYKTTPPVLDSDGSFFLYSKLTVDKSRWQQGNVFSCSVMHEALHNHYTQKSLSLSPGKGGGGSGGGGSDIQMTQSPSSLSASVGDRVTITCRASQVIRRSLAWYQQKPGKAPKLLIYAASNLASGVPSRFSGSGSGTDFTLTISSLQPEDFATYYCQQSNTSPLTFGQGTKVEIKGQSSRSSGGGGSSGGGGSEVQLVESGGGLVQPGGSLRLSCAASGFSINGSWIFWVRQAPGKGLEWVGAIWPFGGYTHYADSVKGRFTISADTSKNTAYLQMNSLRAEDTAVYYCARWGHSTSPWAMDYWGQGTLVTVSS
light chain (kappa): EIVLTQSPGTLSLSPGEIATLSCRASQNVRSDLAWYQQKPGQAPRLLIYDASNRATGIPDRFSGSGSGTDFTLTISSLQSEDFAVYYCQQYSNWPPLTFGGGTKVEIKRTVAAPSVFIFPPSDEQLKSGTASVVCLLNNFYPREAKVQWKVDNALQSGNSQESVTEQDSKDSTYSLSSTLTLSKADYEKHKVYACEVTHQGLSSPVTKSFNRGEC
As to B2, in the assay with human Tie2 [10], the “EC50, pTie2 in HUVEC (in vitro potency; the sheet's head prints no unit, EC50 in nM per legend paragraph 17)” value came to 2.1 nM. In addition, in the assay with VEGF [11], the “EC50, VEGF neutralisation, KDR/NFAT-RE HEK293 luciferase reporter (the sheet's head prints no unit, EC50 in nM per legend paragraph 17)” value came out at 0.9 nM. The “IC50 (read off the curve); % VEGF activity, KDR/NFAT-RE HEK293 luciferase reporter [Panel A]” value in the assay with VEGF [12] is about 1000 pM.

B3: Construct #3 (bispecific antibody, human IgG1, kappa, L234A L235A)
heavy: DVQLVESGGGVVRPGESLRLSCTASGFTFDSYGMSWVRQAPGKGLEWVSSINVGDNTYYADSVRGRFIISRDSSRNTLYLQMNSLTAEDTAVYYCANWNSFFDYWGLGTLVTVSSASTKGPSVFPLAPSSKSTSGGTAALGCLVKDYFPEPVTVSWNSGALTSGVHTFPAVLQSSGLYSLSSVVTVPSSSLGTQTYICNVNHKPSNTKVDKKVEPKSCDKTHTCPPCPAPEAAGGPSVFLFPPKPKDTLMISRTPEVTCVVVDVSHEDPEVKFNWYVDGVEVHNAKTKPREEQYNSTYRVVSVLTVLHQDWLNGKEYKCKVSNKALGAPIEKTISKAKGQPREPQVYTLPPSREEMTKNQVSLTCLVKGFYPSDIAVEWESNGQPENNYKTTPPVLDSDGSFFLYSKLTVDKSRWQQGNVFSCSVMHEALHNHYTQKSLSLSPGKGGGGSGGGGSGGGGSSDTGRPFVEMYSEIPEIIHMTEGRELVIPCRVTSPNITVTLKKFPLDTLIPDGKRIIWDSRKGFIISNATYKEIGLLTCEATVNGHLYKTNYLTHRQTNTIIDVVLSPSHGIELSVGEKLVLNCTARTELNVGIDFNWEYPSSKHQHKKLVNRDLKTQSGSEMKKFLSTLTIDGVTRSDQGLYTCAASSGLMTKKNSTFVRVHEK
light: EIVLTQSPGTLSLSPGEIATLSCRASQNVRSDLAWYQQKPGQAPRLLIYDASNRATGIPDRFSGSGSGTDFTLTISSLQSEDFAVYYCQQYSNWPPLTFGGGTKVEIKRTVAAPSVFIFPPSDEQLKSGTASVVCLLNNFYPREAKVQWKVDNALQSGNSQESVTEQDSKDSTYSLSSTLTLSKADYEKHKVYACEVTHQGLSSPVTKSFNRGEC
For B3, the “EC50, pTIE2 in HUVEC [Panel C]” value with human Tie2 [2] was determined as 2.42 nM. The “EC50, VEGF inhibition, KDR/NFAT-RE HEK293 luciferase reporter [Panel C]” value in the assay with VEGF [3] was found to be 310 pM. For the same molecule, in the assay with human Tie2 [4], the “EC50, pTie2 in HUVEC, W/ VEGF (panels A-C print 'W/ VEGF 50nM'; paragraph 153 says 20 nM) [Panel D]” value was 0.87 nM and the “EC50, pTie2 in HUVEC, W/O VEGF [Panel D]” value was determined as 2.24 nM. In the assay with human Tie2 [6], the “EC50, pAkt in HUVEC” value stood at 0.87 nM. Besides, in the assay with human Tie2 [7], the “EC50, pTie2 in HUVEC (in vitro potency)” value was determined as 3.55 nM. In addition, the “EC50, VEGF neutralisation, KDR/NFAT-RE HEK293 luciferase reporter” value in the assay with VEGF [8] was found to be 245 pM.

B4: #11 (bispecific antibody, human IgG1, kappa, L234A L235A)
heavy chain: DVQLVESGGGVVRPGESLRLSCTASGFTFDSYGMSWVRQAPGKGLEWVSSINVGDNTYYADSVRGRFIISRDSSRNTLYLQMNSLTAEDTAVYYCANWNSFFDYWGLGTLVTVSSASTKGPSVFPLAPSSKSTSGGTAALGCLVKDYFPEPVTVSWNSGALTSGVHTFPAVLQSSGLYSLSSVVTVPSSSLGTQTYICNVNHKPSNTKVDKKVEPKSCDKTHTCPPCPAPEAAGGPSVFLFPPKPKDTLMASRTPEVTCVVVDVSHEDPEVKFNWYVDGVEVHNAKTKPREEQYNSTYRVVSVLTVLAQDWLNGKEYKCKVSNKALGAPIEKTISKAKGQPREPQVYTLPPSREEMTKNQVSLTCLVKGFYPSDIAVEWESNGQPENNYKTTPPVLDSDGSFFLYSKLTVDKSRWQQGNVFSCSVMHEALHNAYTQKSLSLSPGKGGGGSGGGGSDIQLTQSPSSLSASVGDRVTITCSASQDISNYLNWYQQKPGKAPKVLIYFTSSLHSGVPSRFSGSGSGTDFTLTISSLQPEDFATYYCQQYSTVPWTFGQGTKVEIKGQSSRSSGGGGSSGGGGSEVQLVESGGGLVQPGGSLRLSCAASGYDFTHYGMNWVRQAPGKGLEWVGWINTYTGEPTYAADFKRRFTFSLDTSKSTAYLQMNSLRAEDTAVYYCAKYPYYYGTSHWYFDVWGQGTLVTVSS
light chain (kappa): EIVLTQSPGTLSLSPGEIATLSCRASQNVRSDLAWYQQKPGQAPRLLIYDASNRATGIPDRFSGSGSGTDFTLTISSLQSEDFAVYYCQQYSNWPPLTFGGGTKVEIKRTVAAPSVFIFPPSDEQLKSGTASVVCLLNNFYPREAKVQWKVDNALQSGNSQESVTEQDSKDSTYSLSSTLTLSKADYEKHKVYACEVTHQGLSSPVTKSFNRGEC
Regarding B4, in the assay with VEGF [11], the “EC50, VEGF neutralisation, KDR/NFAT-RE HEK293 luciferase reporter (the sheet's head prints no unit, EC50 in nM per legend paragraph 17)” value was 0.107 nM.

B5: #13 (bispecific antibody, human IgG1, kappa, L234A L235A)
heavy chain: DVQLVESGGGVVRPGESLRLSCTASGFTFDSYGMSWVRQAPGKGLEWVSSINVGDNTYYADSVRGRFIISRDSSRNTLYLQMNSLTAEDTAVYYCANWNSFFDYWGLGTLVTVSSASTKGPSVFPLAPSSKSTSGGTAALGCLVKDYFPEPVTVSWNSGALTSGVHTFPAVLQSSGLYSLSSVVTVPSSSLGTQTYICNVNHKPSNTKVDKKVEPKSCDKTHTCPPCPAPEAAGGPSVFLFPPKPKDTLMISRTPEVTCVVVDVSHEDPEVKFNWYVDGVEVHNAKTKPREEQYNSTYRVVSVLTVLHQDWLNGKEYKCKVSNKALGAPIEKTISKAKGQPREPQVYTLPPSREEMTKNQVSLTCLVKGFYPSDIAVEWESNGQPENNYKTTPPVLDSDGSFFLYSKLTVDKSRWQQGNVFSCSVMHEALHNHYTQKSLSLSPGKKEHVRVFTSNKKTMLGSSAACTYLGQDSRTVGDITLTSLFKKMESGSQTKLDRNVLKKHQHKSSPYEWNFDIGVNLETRATCNLVLKEGVSLEIGHSPSLVVDIITNTQRHTLYNTKYLHGNVTAECTLLGIEKYTANSIIFGKRSDWIIRKGDPILTDLPFKKLTVTINPSTVRCPIVLERGETMHIIEPIESYMEVFPRGTDS
light chain (kappa): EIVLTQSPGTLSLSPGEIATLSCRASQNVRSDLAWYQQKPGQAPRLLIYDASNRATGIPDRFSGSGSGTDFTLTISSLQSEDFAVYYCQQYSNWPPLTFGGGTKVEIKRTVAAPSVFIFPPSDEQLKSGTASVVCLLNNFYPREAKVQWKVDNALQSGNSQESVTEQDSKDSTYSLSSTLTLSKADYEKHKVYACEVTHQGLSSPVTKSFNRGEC
Consider B5, for which the “EC50, VEGF neutralisation, KDR/NFAT-RE HEK293 luciferase reporter” value with VEGF [8] came out at 854 pM.
